Source: patent US20070231258A1, “Peptide conjugates” (KARYON CTT LTD., priority 2006, published 2007)
*1 amine or outer side, *2 acyl side, *3 side chain or, on linkers, in order; H or OH if unused. Where a SMILES comes first, the peptide text is derived from it. Bridges are numbered along the chain shown (N, C = ends). Primed or numbered codes have the meaning given here. [ ]: non-standard residue; d: D form. The star is where a group is joined. X1 = O=C(O)CN(CCN(CC(=O)O)CC(Cc1ccc(NC(=S)NCCOCCOCCN*)cc1)N(CC(=O)O)CC(=O)O)CC(=O)O; DTPA′ = diethylenetriaminepentaacetic acid chelator; NHCH2CH2SCH2CO = O=C(CSCCN[*:1])[*:2]; NH(CH2CH2O)2CH2CH2NH2 = NCCOCCOCCN*; AEEEA = NCCOCCOCCOCC(=O)O; PEG3 = NCCOCCOCCOCCC(=O)O; AABz = not defined here

Assays:
[1] = test system: C8161 tumors; assay: Targeting peptide biodistribution (Eu content of tissues) in C8161 tumor-bearing mice; type: in vivo, athymic nude mice; settings: 4 nmol i.v. tail vein, 20 min circulation; for accumulation of europium in tumor compared to normal tissue: kidney high due to excretion; for ratio of tumor Eu-content to muscle Eu-content: perfused
Procedure: It is shown that the tested conjugates according to the present invention selectively target to primary tumors in vivo but not to normal tissues or organs.
For production of experimental tumors 1×10^6 cells of C8161 line (described in Example 9) were injected subcutaneously into the flank of athymic nude mice strain (Harlan Laboratories). Tumors were harvested when they had reached a weight of about 0.1 g. Tumor-bearing mice were anesthetized by 0.02 ml/g body weight of Avertin [10 g 2,2,2-tribromoethanol (Fluka) in 10 ml 2-methyl-2-butanol (Sigma Aldrich)] intraperitoneally (i.p.).
To determine the biodistribution pattern of the conjugates, 4 nmol of MJ015 or MJ053 was injected into the tail vein of athymic nude mice in a volume of 100 μl in physiological saline solution (Baxter). The conjugate was allowed to circulate for 20 min. Mice were then perfused through the heart with 60 ml of physiological saline. Organs and tissues, including tumors were collected and weighed.
For determination of the Eu content of the tumors and control organs, 0.1-0.2 g of tissue was transferred into lysis buffer (20 mM Tris-HCl, 150 mM NaCl, 1% Nonident P40, pH 7.5) and homogenized. Eu-content was analyzed from tissue lysates prepared into the DELFIA Inducer solution (Perkin Elmer Wallac Ltd., Turku, Finland) and transferred to DELFIA Micro titration strip plates (Perkin Elmer Wallac Ltd, Turku, Finland). Time-resolved fluorescence was measured after incubation with a Wallac 1420 VICTOR3™ V plate reader using a D615 nm filter.

[2] = in vitro; settings: human, plasma
Procedure: (§1) The peptide conjugates (10-20 μg) was added to a human blood plasma/PBS mixture (1:1) in a total volume of 500 μl and incubated at 37° C. After incubation 100 μl per time point (0 and 240 min) was transferred to YM-10 (Microcon, cut-off 10000 MW; manufacturer Millipore), centrifuged (10000 RPM) 15 min at 4° C. 50 μl of the spin-through material was analyzed by HPLC.
(§2) HPLC: Waters 626 pump, 600S controller, Waters 996 photo diode array detector. Column: C18, 300 Å, 5 μm, 2.1×250 mm. Eluents for the non-conjugated functional peptides: A 0.1% TFA, B 0.075% TFA/100% ACN. Gradient: 0-100% B in 60 min. Flow: 180 μl/min. Loop: 50 μl.
(§3) Eluents for the functional peptide conjugates: Eluent A: 0.05 M ammonium acetate; B: 50% 0.05 M ammonium acetate/50% ACN. Gradient: 0-100% B in 60 min. Flow: 180 μl/min. Loop: 50 μl. One-minute fractions were collected and analyzed with MALDI-TOF.
(§4) Peptide mass: Bruker Ultraflex MALDI-TOF, N2-laser 337 nm, matrix saturated solution of α-cyano-4-hydroxycinnamic acid, reflector mode.

[3] = Plasma stability of the peptide conjugates in human blood plasma/PBS (HPLC)
Procedure: as §1, §2, §3, §4

[4] = Plasma protein binding and plasma stability assay in vitro (ultrafiltration, LC/MS/MS); type: in vitro ADME, mouse
Procedure: The plasma protein binding and plasma stability of the targeting agents MJ143 (lactam-bridged; described in Example 8) and MJ142 (cystine-bridged; described below) comprising functional peptide LRSGRG was compared in mouse plasma in vitro.
The study compounds were spiked to mouse plasma to give 10 μM concentration. The samples of 1.5 ml were incubated at 37° C. and 200 μl aliquots were taken after 0 min, 30 min, 60 min, 2 h and 4 h. Incubations were made in duplicate. The aliquot samples were ultrafiltrated for 30 min (Millipore YM-10 filters, 10 kDa cut-off, 12 000 rpm) and the supernatants were analysed using LC/MS/MS. The sample concentrations were quantified against calibration curves created using standard samples spiked to ultrafiltrated mouse plasma to concentrations 0.1, 0.5, 1, 5 and 10 μM.
A Finnigan Surveyor chromatographic system (Thermo-Finnigan, San Jose, Calif., USA) with autosampler, vacuum degasser and column oven was used in the analysis. The analytical column was a Waters SymmetryShield RP18, 2.1×50 mm, 3.5 μm together with Phenomenex Luna C18 precolumn, 4.0×2.0 mm, 3.0 μm (Phenomenex, Torrance, Calif., USA). The eluents were (A) 0.02% acetic acid in water (pH 3.6) and (B) methanol, with flow rate of 300 μl/min. The elution gradient was from 5% B to 90% B in five minutes, followed by column equilibration. The column oven temperature was 30° C. LC/MS/MS data was acquired with a Finnigan TSQ Discovery MAX triple quadrupole mass spectrometer equipped with an Ion MAX electrospray ionization source. Before LC/MS/MS runs, the instrument was tuned with a 5 μg/ml solution of study compounds to obtain the maximum sensitivity with multiple reaction mode. The collision gas was argon at 1.5 mTorr.

Molecule: a*IREE*-Tegc-AEM-AABz-DTPA-Eu [MJ053]
- accumulation of europium in tumor compared to normal tissue [1]: accumulated strongly and selectively in C8161 tumors
- ratio of tumor Eu-content to muscle Eu-content [1]: 3.9

Molecule: CC(C)C[C@@H]1NC(=O)[C@@H](C)NC(=O)CC[C@@H](C(=O)NCCOCCOCCN)NC(=O)CNC(=O)[C@H](CCCNC(=N)N)NC(=O)CNC(=O)[C@H](CO)NC(=O)[C@H](CCCNC(=N)N)NC1=O [KK51, D-Ala*-Leu-Arg-SerGly-Arg-Gly-Glu*-NH(CH2CH2O)2CH2CH2NH2] ([dA]LRSGRGE-{NH(CH2CH2O)2CH2CH2NH2}; lactam N-8)
- remaining at 4 h [2]: 92%

Molecule: a*LRSGRGE*-Teg-AEM-AABz-DTPA-Gd (LRSGRGE-{AEEEA-NHCH2CH2SCH2CO-AABz-DTPA′}; lactam N-7; not fully specified (N-terminus); reading uncertain; also: DTPA chelate of Gd) [MJ059]
- Observed compound peak heights prior to incubation ([3]; 0 h, human blood plasma/PBS 1:1, 37° C.): 100%
- Observed compound peak heights after four hours ([3]; 4 h, human blood plasma/PBS 1:1, 37° C.): 100%
- degradation during incubation in plasma ([3]; 4 h incubation in human plasma): no degradation

Molecule: CC(C)C[C@@H]1NC(=O)[C@@H](NC(=O)CN)CSSC[C@@H](C(=O)NCC(=O)NCCOCCOCCN)NC(=O)CNC(=O)[C@H](CCCNC(=N)N)NC(=O)CNC(=O)[C@H](CO)NC(=O)[C@H](CCCNC(=N)N)NC1=O [KK12, Gly-Cys*-Leu-Arg-SerGly-Arg-Gly-Cys*-Gly-NH(CH2CH2O)2CH2CH2NH2, reference compound] (H-GCLRSGRGCG-{NH(CH2CH2O)2CH2CH2NH2}; disulfide 2-9; N-terminus assumed)
- remaining at 4 h [2]: 25%

Molecule: CC(=O)N[C@H]1CSSC[C@@H](C(=O)NCC(=O)N[C@@H](C)C(=O)NCCOCCOCCNC(=S)Nc2ccc(CC(CN(CCN(CC(=O)O)CC(=O)O)CC(=O)O)N(CC(=O)O)CC(=O)O)cc2)NC(=O)CNC(=O)[C@H](CCCNC(=N)N)NC(=O)CNC(=O)[C@H](CO)NC(=O)[C@H](CCCNC(=N)N)NC(=O)[C@H](CC(C)C)NC1=O (stereo partly shown) [MJ142, reference compound] (Ac-CLRSGRGCGA-X1; disulfide 1-8)
- fraction unbound at 0 h, 10 μM ([4]; 0 h, mouse plasma, 10 μM, 37° C., ultrafiltrate, read-out: Peptide-DTPA[In] relative remaining peak areas/unbound fraction (%)): 0.48
- fraction unbound at 30 min, 10 μM ([4]; 30 min, mouse plasma, 10 μM, 37° C., ultrafiltrate, read-out: Peptide-DTPA[In] relative remaining peak areas/unbound fraction (%)): 0.44
- fraction unbound at 1 h, 10 μM ([4]; 1 h, mouse plasma, 10 μM, 37° C., ultrafiltrate, read-out: Peptide-DTPA[In] relative remaining peak areas/unbound fraction (%)): 0.35
- fraction unbound at 2 h, 10 μM ([4]; 2 h, mouse plasma, 10 μM, 37° C., ultrafiltrate, read-out: Peptide-DTPA[In] relative remaining peak areas/unbound fraction (%)): 0.19
- fraction unbound at 4 h, 10 μM ([4]; 4 h, mouse plasma, 10 μM, 37° C., ultrafiltrate, read-out: Peptide-DTPA[In] relative remaining peak areas/unbound fraction (%)): 0.06
- fraction unbound at 0 min, 10 μM ([4]; mouse plasma, 0 min incubation, during the 30 min ultrafiltration period, read-out: disappearance due to protein binding (converted)): ~0.48

Molecule: a*LRSGRGE*-Teg-AEM-AABz-DTPA-Eu (LRSGRGE-{AEEEA-NHCH2CH2SCH2CO-AABz-DTPA′}; lactam N-7; not fully specified (N-terminus); reading uncertain; also: DTPA chelate of Eu) [MJ015]
- accumulation of europium in tumor compared to normal tissue [1]: accumulated strongly and selectively in C8161 tumors
- ratio of tumor Eu-content to muscle Eu-content [1]: 7.1

Molecule: a*LRSGRGE*-Tegc-AEM-AABz-DTPA-In (LRSGRGE-{PEG3-NHCH2CH2SCH2CO-AABz-DTPA′}; lactam N-7; not fully specified (N-terminus); reading uncertain; also: In chelated by DTPA) [MJ143]
- Peptide-DTPA[In] relative remaining peak areas/unbound fraction (%) ([4]; 0 h, mouse plasma, 10 μM, 37° C., ultrafiltrate): 71%
- Peptide-DTPA[In] relative remaining peak areas/unbound fraction (%) ([4]; 30 min, mouse plasma, 10 μM, 37° C., ultrafiltrate): 71%
- Peptide-DTPA[In] relative remaining peak areas/unbound fraction (%) ([4]; 1 h, mouse plasma, 10 μM, 37° C., ultrafiltrate): 70%
- Peptide-DTPA[In] relative remaining peak areas/unbound fraction (%) ([4]; 2 h, mouse plasma, 10 μM, 37° C., ultrafiltrate): 66%
- Peptide-DTPA[In] relative remaining peak areas/unbound fraction (%) ([4]; 4 h, mouse plasma, 10 μM, 37° C., ultrafiltrate): 61%
- plasma protein binding, lactam-bridged vs cystine-bridged version ([4]; mouse plasma in vitro): considerably lower plasma protein binding
- plasma stability, lactam-bridged vs cystine-bridged version ([4]; mouse plasma in vitro): greatly more stable
